Laboratory results taken from patent US20240035010, “COMPOSITIONS COMPRISING A VARIANT POLYPEPTIDE AND USES THEREOF” (Arbor Biotechnologies, Inc., published 2024).
Positions count from the first letter of the chain named.

T1: variant nuclease E154G combination (P14R, D32R, I61R, E311R, E154G)
T1 chain: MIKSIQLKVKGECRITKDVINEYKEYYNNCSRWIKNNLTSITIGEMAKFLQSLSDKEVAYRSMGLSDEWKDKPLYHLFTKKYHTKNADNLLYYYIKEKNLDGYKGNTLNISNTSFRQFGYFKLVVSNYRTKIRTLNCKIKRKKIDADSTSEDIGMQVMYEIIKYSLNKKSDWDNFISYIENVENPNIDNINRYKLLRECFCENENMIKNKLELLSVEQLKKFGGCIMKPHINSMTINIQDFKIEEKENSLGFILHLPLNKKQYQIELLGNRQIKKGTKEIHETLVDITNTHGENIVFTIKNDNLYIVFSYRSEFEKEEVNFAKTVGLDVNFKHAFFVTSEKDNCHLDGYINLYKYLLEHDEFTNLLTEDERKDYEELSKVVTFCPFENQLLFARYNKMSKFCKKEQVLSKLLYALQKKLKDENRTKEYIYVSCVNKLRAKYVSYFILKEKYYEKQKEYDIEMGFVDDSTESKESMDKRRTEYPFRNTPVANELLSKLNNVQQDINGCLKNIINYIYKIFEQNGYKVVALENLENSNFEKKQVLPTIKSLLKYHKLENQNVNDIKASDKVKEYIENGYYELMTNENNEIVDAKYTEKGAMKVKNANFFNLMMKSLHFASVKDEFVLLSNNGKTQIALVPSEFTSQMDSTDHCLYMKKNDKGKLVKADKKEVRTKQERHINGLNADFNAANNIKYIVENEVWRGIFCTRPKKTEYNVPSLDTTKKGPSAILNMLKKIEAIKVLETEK

T2: variant nuclease K35G combination (P14R, D32R, I61R, E311R, K35G)
T2 chain: T1 chain with K35G, G154E

T3: variant nuclease SEQ ID NO: 53 (P14R, D32R, I61R, E311R, T338G, E736G)
T3 chain: T1 chain with G154E, T338G, E736G

B1: EMX1 crRNA ; EMX1 target (ssRNA ; dsDNA)
RNA: CUUGUUGUAUAUGUCCUUUUAUAGGUAUUAAACAACCCGCCGCUUCCUGAGCCAUC
DNA 1: CCGCCGCTTCCTGAGCCATC
DNA 2: GATGGCTCAGGAAGCGGCGG
B2: AAVS1 crRNA ; AAVS1 target (ssRNA ; dsDNA)
RNA: CUUGUUGUAUAUGUCCUUUUAUAGGUAUUAAACAACUGAGAAUGGUGCGUCCUAGG
DNA 1: TGAGAATGGTGCGTCCTAGG
DNA 2: CCTAGGACGCACCATTCTCA

Columns and labels:
Conditions in all cases: tags: pcDNA3.1 expression
[1] = target: T1, variant nuclease E154G combination; test: cell_activity; PAM 5'-ATTG-3'
[2] = target: T2, variant nuclease K35G combination; test: cell_activity; PAM 5'-ATTG-3'
[3] = target: T3, variant nuclease SEQ ID NO: 53 (P14R, …); test: cell_activity; % indels; HEK293T; PAM 5'-ATTG-3'
[4] = target: T3, variant nuclease SEQ ID NO: 53 (P14R, …); test: cell_activity; % indels; HEK293T; PAM 5'-TTTG-3'

| Binder | indel editing activity [1] | indel editing activity [2] | indel frequency [3] | indel editing activity [4] |
| --- | --- | --- | --- | --- |
| B1 | 6.04 fold of WT | 6.93 fold of WT | 11.9 fold of WT | – |
| B2 | – | – | – | 6.11 fold of WT |
